Results from patent US20210009671A1.

Biological target: Recombinant human TNFα (R&D Systems) (human) (UniProt P01375)
Sequence (P01375 77-233 limits assumed): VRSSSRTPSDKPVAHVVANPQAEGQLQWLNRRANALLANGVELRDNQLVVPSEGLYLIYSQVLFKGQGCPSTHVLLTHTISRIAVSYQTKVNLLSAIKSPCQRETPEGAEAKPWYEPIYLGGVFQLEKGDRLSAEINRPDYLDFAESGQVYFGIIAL

IC50, TNFα-induced Caspase 3 activity in U937 cells: 0.144 nM
Substance: etanercept (Fc fusion)
